From patent US20160362487A1 (Regeneron, published 2016)
Positions count from the first letter of the chain named. Numbers in names are those of the source.

T1: human IL-33 (R&D Systems, #3625-IL-010/CF) (human, UniProt O95760 112-270)
T1 sequence (looked up): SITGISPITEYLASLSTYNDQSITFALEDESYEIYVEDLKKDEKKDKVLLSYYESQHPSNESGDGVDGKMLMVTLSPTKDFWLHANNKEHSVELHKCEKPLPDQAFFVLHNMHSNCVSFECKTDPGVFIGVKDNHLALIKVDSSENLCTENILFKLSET

T2: cynomolgus monkey IL-33 expressed with a C-terminal hexahistidine tag (cynomolgus monkey)
T2 chain: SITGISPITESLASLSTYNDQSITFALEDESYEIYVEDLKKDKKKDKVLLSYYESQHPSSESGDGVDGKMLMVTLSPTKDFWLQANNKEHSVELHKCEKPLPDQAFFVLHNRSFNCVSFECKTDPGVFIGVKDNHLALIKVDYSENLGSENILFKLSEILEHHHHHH

T3: biotinylated hIL-33 protein (R&D systems, Cat #3625-IL/CF) (human, UniProt O95760 112-270, biotinylated (sites not given))
T3 construct: Same commercial protein as m21, biotin-labelled; also called biotin-hIL-33
T3 sequence (looked up): T1 sequence (looked up)

B1: H4H9663P (antibody, human IgG4, V domains shown)
VH: QVQLVQSGAEVKKPGASVKVSCKASGYTFTGHYMYWMRQAPGQGLEWMGWINPNSGGTNYAQKFQDRVTMTRDTSISTAYMELSRLRSDDTAVYYCARGRYGSSWYGGFEYWGQGTLVTVSS
VL: DIQMTQSPSSVSASVGDRVTITCRASQGITSWLAWYQQKPGKAPNLLIYAAASLQSGVPSRFSGSGSGTDFTLTISSLQPEDFTTYYCQQAYSLPLTFGGGTKVEIK
notes: Human IgG4 Fc (H4H)
B2: H4H9666P (antibody, human IgG4, V domains shown)
VH: QVQLVQSGAEVKKPGASVKVSCKASGYTFTSYGISWVRQAPGQGLEWMGWIRAYNGYTNYAQKFQGRVTMTTDTSTNTAYMELRTLNSDDTAVYYCARDRYSGSFHGNFDYWGQGTLVTVSS
VL: B1 VL with T30F, N45K, L46V, A52S, S53N, Q55E, T84A, Y92N
notes: Human IgG4 Fc (H4H)
B3: H4H9662P (antibody, V domains shown)
VH: EVQLVESGGGLVQPGGSLRLSCAASGFTFSSYALTWVRQAPGKGLEWVSFISGSGGRPFYADSVKGRFTISRDNSKNMLYLQMNSLRAEDTAIYYCAKSLYTTSWYGGFDSWGQGTLVTVSS
VL: DIQMTQSPSSVSASVGDRVTITCRASQGVVSWLAWYQQKPGKAPKLLIYAASSLQSGVPSRFSGSGSGTDFTLTISSLQPEDFATYYCQQSNSFPFTLGPGTKVDIK
notes: Human IgG4 Fc (H4H)
B4: H4H9667P (antibody, human IgG4, V domains shown)
VH: EVQLVESGGGLVQPGGSLRLSCAASGFTFSTYSMHWVRQAPGKGLEYVSTINNNGDTTYYADSVKGRFTISRDNSKNTLYLQLGSLRPEDMAVYYCARQTYTSSWYGGFDSWGQGTLVTVSS
VL: B3 VL with V29I, V30T, S53N, S76T, S91A, F94L, L98F
notes: Human IgG4 Fc (H4H)
B5: H4H9664P (antibody, human IgG4, V domains shown)
VH: QVQLVESGGGVVQPGRSLRLSCAASGFTFSSYGLHWVRQSPGKGLEWVALISYDGSNKYYADSVKGRFTISRDNSKNTLYLQMNSLRPEDTAGYFCAKSLYTTSWYGGFDYWGQGTLVTVSS
VL: B3 VL with V29I, V30R, K45N, S91A, F96P, L98F
notes: Human IgG4 Fc (H4H)
B6: H4H9665P (antibody, human IgG4, V domains shown)
VH: EVQLVESGGGLVQPGGSLRLSCAASGFTFSNYAMTWVRQAPGKGLEWVSTISGSGDNTYYADSVQGRFTISRGHSKNTLYLQMNSLRAEDTAVYYCAKPTYSRSWYGAFDFWGQGTMVTVSS
VL: B3 VL with V29I, V30S, K45Q, S53R, S63W, S91A, S93N, L98F
notes: Human IgG4 Fc (H4H)

What follows are binders tested against T1, human IL-33 (R&D Systems, …) (assay: cell-based or functional assay).

IC50, inhibition of 10 pM hIL-33 activation of HEK293/hST2/NFkB-luciferase cells [M]	Binder
1.3e-10	B1
3.5e-11	B2
2e-11	B3
7.1e-11	B4
5e-11	B5
9e-11	B6

Target: T2, cynomolgus monkey IL-33 expressed with …
Assay: cell-based or functional assay

IC50, inhibition of 5 pM MfIL-33-6His activation of HEK293/hST2/NFkB-luciferase cells [M]	Binder
2.7e-09	B1
7.8e-08	B2
1.5e-09	B3
1.2e-08	B4
2.6e-08	B5
6.6e-10	B6

Each binder was assayed against T1, human IL-33 (R&D Systems, …) (assay: BLI; hIL-33 pre-mixed with mAb-2 H1M9565N).
Procedure: (§1) Binding competition between a panel of different anti-IL-33 monoclonal antibodies was determined using a real time, label-free bio-layer interferometry assay on an Octet® HTX biosensor (ForteBio, A Division of Pall Life Sciences). The experiment was performed at 25° C. using a buffer of 0.01M HEPES pH7.4, 0.15M NaCl, 0.05% v/v Surfactant Tween-20, and 0.1 mg/ml BSA (HBS-ET kinetics buffer) with the plate shaking at a speed of 1000 rpm. To assess whether two antibodies were able to compete with one another for binding to human IL-33, a pre-mix assay format was used where 100 nM of human IL-33 (R&D Systems; #3625-IL-010/CF) was pre-mixed with 500 nM of different anti-IL-33 monoclonal antibodies (subsequently referred to as mAb-2) for at least 2 hours prior to running the binding competition assay. […] Following the capture step, unoccupied anti-mouse Fc polyclonal antibody and anti-human Fc polyclonal antibody on the Octet biosensors were saturated by submerging them for 4 minutes into wells containing 200 μg/mL of a non-specific monoclonal antibody with a mouse Fc or with a human Fc, respectively. Finally, the Octet biosensors were immersed for 4 minutes into wells containing the pre-mixed samples of 100 nM of human IL-33 and 500 nM of mAb-2. At the end of each cycle, the non-covalently captured anti-IL-33 antibodies along with the bound pre-complex of human IL-33 and mAb-2 were removed from the biosensors using three alternate 20 second immersions into 10 mM HCl followed by submerging into HBS-ET kinetics buffer. The biosensors were washed in HBS-ET kinetics buffer in between every step of the experiment. The real-time binding response was monitored during the binding events, and the binding response (in units of nm) at the end of every step was recorded.

mAb-1 Binding to the Pre-complex of mAb-2 & hIL-33 [nm]	Binder
0.54	B1
0.56	B2
0.57	B3
0.48	B4
0.48	B5
0.66	B6

The binders below were run against T3, biotinylated hIL-33 protein (R&D …) (assay: competition ELISA, 30 pM biotin-hIL-33 on coated hST2-hFc).
Procedure: The ability of anti-IL-33 antibodies to block either human IL-33 (hIL-33) or cynomologus monkey IL-33 binding to the human ST2 receptor was measured using a competition sandwich ELISA. […] The antibody/IL-33 mixtures were incubated for 1 hour at room temperature before they were transferred to the hST2-hFc-coated microtiter plates. After incubating for 1 hour at room temperature, the wells were then washed, and plate-bound biotin-hIL-33 was detected with streptavidin conjugated with horse-radish peroxidase (HRP) (Thermo Scientific, Cat # N200), and plate-bound MfIL-33-6His was detected with a HRP conjugated anti-His monoclonal antibody (Qiagen, #34460). All samples were developed with a TMB solution (BD biosciences, #51-2607KC) to produce a colorimetric reaction and then quenched by acidification with 1M sulfuric acid before measuring absorbance at 450 nm on a Victor X5 plate reader. Data analysis was performed using a sigmoidal dose-response model within Prism™ software. […] Percent blockade was calculated as the ratio of the reduction in signal observed in the presence of antibody relative to the difference between the signal with IL-33 alone and background (signal from HRP-conjugated secondary antibody or streptavidin alone). The absorbance measured for the constant concentration of biotin-hIL-33 or MfIL-33-6His alone is defined as 0% blocking and the absorbance measured for no added IL-33 is defined as 100% blocking.

% Maximum blocking [%]	IC50 [nM]	Binder
74	0.5	B1
71	0.6	B2
77	1	B3
78	0.41	B4
73	0.3	B5
55	0.87	B6

These binders were tested against T1, human IL-33 (R&D Systems, …) (assay: BLI; hIL-33 pre-mixed with mAb-2 Isotype control 2).
Procedure: as §1

mAb-1 Binding to the Pre-complex of mAb-2 & hIL-33 [nm]	Binder
0.09	B1
0.08	B2
0.11	B3
0.12	B4
0.1	B5
0.09	B6

Target: T2, cynomolgus monkey IL-33 expressed with …
Assay: BLI; captured MfIL-33-6His, mAb-1 step with Buffer
Procedure: Binding competition between a panel of different anti-IL-33 monoclonal antibodies was determined using a real time, label-free bio-layer interferometry assay on an Octet® HTX biosensor (ForteBio, A Division of Pall Life Sciences). The experiment was performed at 25° C. using a buffer of 0.01M HEPES pH7.4, 0.15M NaCl, 3 mM EDTA, 0.05% v/v Surfactant Tween-20, and 0.1 mg/ml BSA (HBS-ET kinetics buffer) with the plate shaking at a speed of 1000 rpm. […] The antigen-captured biosensors were then saturated with a first anti-IL-33 monoclonal antibody (subsequently referred to as mAb-1) by immersion into wells containing 50 μg/mL solution of mAb-1 for 5 minutes. The biosensors were then dipped into wells containing a 50 μg/mL solution of a second anti-IL-33 monoclonal antibody (subsequently referred to as mAb-2) for 4 minutes. The biosensors were washed in HBS-ET kinetics buffer in between every step of the experiment. The real-time binding response was monitored during the experiment, and the maximum binding response for each binding step was recorded. The response of mAb-2 binding to MfIL-33-6His pre-complexed with mAb-1 was measured, and competitive/non-competitive behavior of different anti-IL-33 monoclonal antibodies with respect to each other was determined.

mAb-2 Binding to the Pre-complex of mAb-1 & MfIL-33-6xHis [nm]	Binder
0.31	B1
0.32	B2
0.26	B3
0.3	B4
0.31	B5
0.33	B6
